Measured values taken from patent US20230148181A1, “ENZYME FOR THE CONVERSION OF CHLOROGENIC ACID INTO ISOCHLOROGENIC ACID” (UNIVERSITE DE LORRAINE, priority 2020, published 2023).

How the values were obtained:
Type in all cases: biochemical
[1] = in vitro enzyme assay of purified recombinant IbGDSL (produced in N. benthamiana): conversion of CGA into 3,5-DCQ, UPLC-MS
Procedure: The in vitro enzyme assays are conducted on the purified recombinant enzyme produced in a plant system. After 6 days of co-culture, N. benthamiana leaves agro-infiltrated with the vector carrying the gene of interest, are harvested and ground in extraction buffer (20 mM sodium phosphate, 0.5 M NaCl, pH 7.4). The extract is then centrifuged and the supernatant containing all the soluble proteins including IbGDSL is recovered and sterilised by 0.2 μm filtration. Protein purification is then conducted according to the supplier's instructions on Nickel columns (HisTrap HP-GE HEALTHCARE). […]
Enzyme assays are performed in a 50 μl volume with 200-400 ng of the purified protein (that is a few μl). The optimal reaction pH will be determined using a polybuffer (0.1 M Tris/20 mM MES/0.1 M acetic acid) from which a pH range of 4 to 9 will be constructed. […]
3,5-DCQ quantification is done by measuring the area of the peak of a 3,5-DCQ standard at 330 nm. […] The contents of the other compounds (chlorogenic acid and the other DCQ isomers) are expressed as 3,5-DCQ equivalents. The content is calculated according to the following formula for a compound: […]
A pH range between 4 and 9 was established to determine the optimal pH for the conversion of CGA into 3,5-DCQ by virtue of IbGDSL. […] From the curve obtained it was determined that the optimal reaction pH is between 6 and 7 (FIG. 3A). […]

[2] = bioconversion of pure CGA into 3,5-DCQ by P. pastoris culture or supernatant expressing IbGDSL
Procedure: The bioconversion of CGA into 3,5-DCQ in vivo requires the establishment of a highly metabolically active P. pastoris culture. The yeasts are cultured in nutrient medium containing a 100 mM potassium phosphate buffer with a pH adjusted to pH 6.0. This allows the medium in which the enzyme obtained from the microbial cells and the substrate will be in contact, to be maintained at pH 6. After establishing an inoculum of 25 mL of yeast culture overnight at 30° C. under agitation of 250-300 rpm, this is used to inoculate a volume of 100-200 mL of nutrient medium in such a way as to obtain an OD600nm around 1. To this culture 0.5% methanol is added in order to initiate the production of IbGDSL. The addition of methanol is repeated every 24 hours to maintain the level of induction of protein production. […]
The first step of this experiment is to show whether the IbGDSL produced by P. pastoris is capable of converting CGA into 3,5-DCQ knowing that the original enzyme could potentially be glycosylated three-fold and that the glycan trees generated by P. pastoris are not comprised and organised in the same way as the plant glycan trees. These differences could directly influence the stability and prevent the proper activity of the enzyme. To do so, supernatants from two P. pastoris cultures, one transformed with the empty vector (negative control) and the other with the vector carrying the gene encoding IbGDSL were recovered after 3 days of methanol induction. These supernatants were incubated at pH 6.5 with 10 mM chlorogenic acid for 30 minutes at 36° C. The enzymatic reaction was then stopped with the addition of ethanol and analysed by UPLC-MS.
The second step of this experiment is to show whether the CGA directly added to the P. pastoris culture medium expressing the enzyme could be directly converted into 3,5-DCQ. The objective is to avoid the purification step of the enzyme if necessary.
[…] This experiment was conducted at 30° C., the ideal temperature for the culture and growth of the P. pastoris organism.

[3] = bioconversion of chlorogenic acid from green coffee (Coffea canephora) extract into 3,5-DCQ by IbGDSL from P. pastoris
Procedure: The bioconversion reaction of CGA into 3,5-DCQ was also carried out from a green coffee (Coffea canephora) extract whose composition is indicated in FIG. 7A. This green coffee extract, comprising a CGA concentration equivalent to 10 mM and bioconverted over a period of 50 hours, at 30° C. and pH 6, led to a new extract whose composition is shown in FIG. 7B. […] Furthermore, no other caffeic acid-containing substrate than chlorogenic acid is biotransformed as no decrease in peaks is observed except for that corresponding to CGA. Bioconversion of green coffee extract with IbGDSL increases the 3,5-DCQ content initially present in the extract 4.5-fold (200 mg/L at T0 and 900 mg at T50h) for a starting CGA concentration equivalent to 10 mM. Bioconversion of CGA into 3,5-DCQ from the green coffee extract was performed after 4 and 7 days, in order to analyse the effect of a reaction with GDSL taking place over a long period of time (FIG. 9). […] The concentration of the IbGDSL enzyme obtained by fermentation of P. pastoris accelerates the reaction speed of the conversion of CGA into 3,5-DCQ (FIG. 10). It is noticed that the same level of 3,5-DCQ concentration can be obtained for enzyme concentration factors of 10-, 20- and 37-fold after 60 h of bioconversion.

B1: IbGDSL: recombinant GDSL esterase/lipase enzyme of Ipomoea batatas (SEQ ID No. 1) converting chlorogenic acid into isochlorogenic acid (protein)
chain: MAAAAPSSSLLGVLMLLASIGYAAACYSAVFGFGDSLTDAGNLIRLEPDGTVPHMYFPPYGETYFDKPTGRCSDGRLIVDLIAQHYGLPLPPPSIPASLEGDKNRLRAGVNFAVVGSRALDAQFYEQRDIFDTVTNVSMTDQLNWFKELLPSLCSSPHDCKELLDGSLFVLGEFGGNDYTHSLLSGKGINVIRPFIPIVTRAIAQAVHELVELGARTVMIPSVLPLGCAASYLTYYPSPNPDDYDELGCLIWVNEMASYHNQLLQQQLAHVRELHPYANIVFADIYNAAMEVYQGPDTYGFSGGALRACCGGGGPYNFNTSAQCGNEGATACDNPSSYVNWDGYHLTEAAYQCITTGLLEGPYTYPRMKNLCRFDSRKTSRVAQI
modifications: Ipomoea batatas
- CGA concentration from which a slowing down of the enzyme activity is observed ([1]; pH 6.5, 30 minutes of incubation at 36° C.): ≥ 10 mM
- temperature of maximum conversion ([1]; purified IbGDSL, 10 mM CGA, pH 6.5, temperature range 15-45° C.): 37 °C
- bioconversion yield of CGA into 3,5-DCQ ([2]; 10 mM CGA added directly to culture, pH 6, 30° C., 3 days, stoichiometric limit 50%): around 44%
- maximum yield of conversion of pure CGA into 3,5-DCQ ([2]; after 50 hours of bioconversion, 5- and 7.5-mM starting CGA): 32%
- 3,5-DCQ content, maximum amounts ([2]; after 50 hours of bioconversion, starting pure CGA 7.5 and 9 mM): ~1.2 g/L
- activity of enzyme secreted in P. pastoris supernatant (3,5-DCQ peak) ([2]; supernatant after 3 days methanol induction, pH 6.5, 10 mM chlorogenic acid, 30 minutes at 36° C.): functional
- product specificity of the bioconversion ([3]; green coffee extract equivalent to 10 mM CGA, 50 hours, 30° C., pH 6): exclusively catalyses the formation of 3,5-DCQ
- 3,5-DCQ content at T50h ([3]; starting CGA equivalent to 10 mM, 30° C., pH 6): 900 mg
- increase of the 3,5-DCQ content initially present in the extract ([3]; starting CGA equivalent to 10 mM, T50h versus T0): 4.5 fold
